# From patent CN115466329A (GUANGDONG FAPON PHARMACEUTICAL CO LTD, dated 2022)
# T1: 小鼠PD1 expressed on CHO cells (CHO-mousePD1) (mouse, UniProt Q02242 25-288)
# T1 construct: whole, on cells; also called CHO-mPD1
# T1 sequence (looked up): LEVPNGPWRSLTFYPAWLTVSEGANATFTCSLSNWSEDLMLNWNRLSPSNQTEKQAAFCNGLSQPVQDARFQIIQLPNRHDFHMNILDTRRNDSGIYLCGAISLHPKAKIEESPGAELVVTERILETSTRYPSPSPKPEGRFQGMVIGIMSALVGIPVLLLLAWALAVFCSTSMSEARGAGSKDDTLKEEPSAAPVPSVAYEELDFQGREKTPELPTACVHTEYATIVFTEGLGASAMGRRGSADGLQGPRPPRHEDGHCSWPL
# T2: CTLA-4 (ACRO) coated on the ELISA plate (UniProt P16410 37-162, limits assumed)
# T2 sequence (looked up): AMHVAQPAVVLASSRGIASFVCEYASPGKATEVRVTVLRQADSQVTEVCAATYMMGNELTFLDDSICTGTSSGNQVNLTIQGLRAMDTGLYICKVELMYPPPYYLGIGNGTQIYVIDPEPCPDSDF
# T3: ICOS (ACRO) coated on the ELISA plate (UniProt Q9Y6W8 21-140)
# T3 sequence (looked up): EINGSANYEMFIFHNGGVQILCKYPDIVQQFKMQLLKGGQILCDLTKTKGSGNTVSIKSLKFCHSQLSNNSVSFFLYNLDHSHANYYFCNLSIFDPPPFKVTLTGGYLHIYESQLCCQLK
# Experiments:
# [1] = biological target: T1, 小鼠PD1 expressed on CHO cells …; experiment: flow cytometry on CHO-mousePD1 cells
# [2] = biological target: T4, PD-1-his(ACRO)重组蛋白 (UniProt Q15116 25-167); experiment: BLI (ForteBio Octet QKe), PD-1-his loaded on HIS1K sensor, antibody in solution
# T4 construct: Bought (ACRO); not shown: his tag
# [3] = biological target: T2, CTLA-4 (ACRO) coated on the ELISA plate; experiment: ELISA, antigen coated at 1μg/ml
# [4] = biological target: T3, ICOS (ACRO) coated on the ELISA plate; experiment: ELISA, antigen coated at 1μg/ml
# [5] = biological target: CD28 (ACRO) coated on the ELISA plate (UniProt P10747 19-152); experiment: ELISA, antigen coated at 1μg/ml
# Chain of CD28 (ACRO) coated on the ELISA plate (P10747 19-152 limits assumed): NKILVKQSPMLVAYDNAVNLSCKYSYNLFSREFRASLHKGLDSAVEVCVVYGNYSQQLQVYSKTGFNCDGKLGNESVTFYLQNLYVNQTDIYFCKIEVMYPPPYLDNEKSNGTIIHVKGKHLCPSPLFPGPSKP
# T4 sequence (Q15116 25-167 limits assumed): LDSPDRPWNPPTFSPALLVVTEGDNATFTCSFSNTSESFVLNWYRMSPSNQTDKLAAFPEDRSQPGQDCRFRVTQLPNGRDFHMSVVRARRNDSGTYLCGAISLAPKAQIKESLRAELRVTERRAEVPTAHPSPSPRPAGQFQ
binder,measurement,setting,value
"抗PD-1鼠单抗PD-1-76-C2 (antibody, V domains shown, Mouse monoclonal antibody from a hybridoma; an mIgG1 isotype control was used; also called PD-76-C2; 抗人PD-1鼠单抗) VH: QIQLVQSGPELKKPGETVKISCKASGYTFTNYGMNWVKQAPGKGLKWMGWINTHTGEPTYADDFKGRFAFSLETSASTAYLQIKNLKNEDVATYFCTKEGEGIGFAYWGQGTLVTVSA VL: DVLMTQTPLSLPVSLGDQASISCRSSQSIVYSNGKTYLEWYLQKPGQSPKLLIYKVSNRFSGVPDRFSGSGSGTDFTLKISRVEAEDLGVYYCFQGSHVPNTFGGGTKLEIKR",binding result,[1],no binding (tested: 初始浓度为10μg/ml)
same,Kd,[2],< 1 pM
same,koff,[2],< 1e-07 s⁻¹
same,kon,[2],771000 M⁻¹ s⁻¹
same,binding result,[3],no binding (tested: 10μg/ml)
same,binding result,[4],no binding (tested: 10μg/ml)
same,binding result,[5],no binding (tested: 10μg/ml)
